pKi: −log10 of the molar value.
Target: mature KLK4 from recombinant pro-KLK4 expressed in Sf9 cells, activated with thermolysin (human) (UniProt Q9Y5K2)
Assay: enzyme inhibition assay

Chain of UniProt Q9Y5K2 (Q9Y5K2 31-254): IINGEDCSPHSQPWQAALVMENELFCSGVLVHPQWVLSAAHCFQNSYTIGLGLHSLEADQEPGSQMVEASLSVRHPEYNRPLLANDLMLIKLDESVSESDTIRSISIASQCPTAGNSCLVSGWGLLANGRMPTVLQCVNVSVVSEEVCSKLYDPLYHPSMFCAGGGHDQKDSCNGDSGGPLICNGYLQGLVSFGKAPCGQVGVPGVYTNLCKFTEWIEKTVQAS

SFTI-FCQR(Asn14), bicyclic (peptide)
pKi: 10.40

SFTI-FCQR(Asn14)[1,14], monocyclic (1,14-acyclic backbone, disulfide-bridged) (peptide)
pKi: 8.46

From publication doi:10.1101/570390
